Measured values: US20110159022A1, “Immunogenic Peptides Derived from the Midkine Protein, as an Anticancer Vaccine” (priority 2008, published 2011)
Residue numbers refer to the chain shown, from its start.

How the values were obtained:
[1] = target: HLA-DR1 (DRB1*0101) (Homo sapiens, UniProt P01903+P01911, A100R/D57E/F55L/F60I/F76Y/I96L/L162R/M171V/P40L/Q125E/R42F/V115G/Y59C); format: binding; settings: ratio of IC50 of competitor peptide to IC50 of reference peptide; mean of at least two independent experiments; less than 100 = active
[2] = target: HLA-DR3 (DRB1*0301) (Homo sapiens, UniProt P01903+P01911, A100K/A102G/A103R/A169T/F55Y/I96L/K41T/L162R/M171V/P40S/Q125H/Q178H/Q39Y/R42S/S66N/T106N/T262R/W38E/Y61H); assay: HLA II/peptide competition binding assay, DR3; settings: ratio of IC50 of competitor peptide to IC50 of reference peptide; mean of at least two independent experiments; less than 100 = active
[3] = target: HLA-DR4 (DRB1*0401) (Homo sapiens, UniProt P01903+P01911, A100K/A169T/F76Y/I96L/K127E/L162R/M171V/N62H/P40V/Q125Y/R42H/S133A/S149N/S66Y/V115G/V209L/W38E); assay: HLA II/peptide competition binding assay, DR4; settings: ratio of IC50 of competitor peptide to IC50 of reference peptide; mean of at least two independent experiments; less than 100 = active
[4] = target: HLA-DR7 (DRB1*0701) (Homo sapiens, UniProt P01903+P01911, A100R/A102G/A103Q/D57E/D86V/E43K/F76Y/K127E/L162R/M171V/P40G/Q125H/Q99D/R33Q/R42Y/R54Q/S133A/S66F/T210M/V115G/Y107V/Y59L/Y89S); assay: HLA II/peptide competition binding assay, DR7; settings: ratio of IC50 of competitor peptide to IC50 of reference peptide; mean of at least two independent experiments; less than 100 = active
[5] = target: HLA-DR13 (DRB1*1301) (Homo sapiens, UniProt P01903+P01911, A100E/A169T/K41T/L162R/M171V/P40S/Q125H/Q178H/Q39Y/Q99D/R42S/S66N/T262R/W38E/Y61H); assay: HLA II/peptide competition binding assay, DR13; settings: ratio of IC50 of competitor peptide to IC50 of reference peptide; mean of at least two independent experiments; less than 100 = active
[6] = target: HLA-DR15 (DRB1*1501) (Homo sapiens, UniProt P01903+P01911); assay: HLA II/peptide competition binding assay, DR15; settings: ratio of IC50 of competitor peptide to IC50 of reference peptide; mean of at least two independent experiments; less than 100 = active
[7] = target: HLA-DRB3 (DRB3*0101) (Homo sapiens, UniProt P01903+P79483); assay: HLA II/peptide competition binding assay, DRB3; settings: ratio of IC50 of competitor peptide to IC50 of reference peptide; mean of at least two independent experiments; less than 100 = active
[8] = target: HLA-DRB4 (DRB4*0101) (Homo sapiens, UniProt P01903+P13762, G164S); assay: HLA II/peptide competition binding assay, DRB4; settings: ratio of IC50 of competitor peptide to IC50 of reference peptide; mean of at least two independent experiments; less than 100 = active
[9] = target: HLA-DRB5 (DRB5*0101) (Homo sapiens, UniProt P01903+Q30154); assay: HLA II/peptide competition binding assay, DRB5; settings: ratio of IC50 of competitor peptide to IC50 of reference peptide; mean of at least two independent experiments; less than 100 = active
[10] = target: T1, HLA-DP401 (DPB1*0401) (Homo sapiens, UniProt P04440+P20036); format: binding; settings: ratio of IC50 of competitor peptide to IC50 of reference peptide; mean of at least two independent experiments; less than 100 = active
T1 sequence (P04440 30-258): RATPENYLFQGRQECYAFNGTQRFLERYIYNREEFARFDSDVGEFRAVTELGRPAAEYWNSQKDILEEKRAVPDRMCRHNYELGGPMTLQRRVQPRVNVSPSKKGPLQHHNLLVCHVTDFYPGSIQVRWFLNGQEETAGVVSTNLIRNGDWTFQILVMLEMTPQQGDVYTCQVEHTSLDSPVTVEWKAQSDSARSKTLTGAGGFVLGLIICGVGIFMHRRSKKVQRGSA
T1 sequence (P20036 29-260): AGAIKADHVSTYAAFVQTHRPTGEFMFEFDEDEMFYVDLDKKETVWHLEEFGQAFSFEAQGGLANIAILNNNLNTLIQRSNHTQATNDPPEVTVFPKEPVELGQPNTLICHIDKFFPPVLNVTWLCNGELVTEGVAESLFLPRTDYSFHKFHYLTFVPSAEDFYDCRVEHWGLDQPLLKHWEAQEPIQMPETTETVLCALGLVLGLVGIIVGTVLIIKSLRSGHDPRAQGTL

[11] = test system: 12 predominant HLA II molecules; assay: HLA II/peptide binding assays, count over the panel; parameters: species or system human; settings: relative activity of less than 100 characterizes the active peptides
From the text: The assays for binding to HLA II molecules are competition binding assays with immunoenzymatic visualization, as described in U.S. Pat. No. 6,649,166 and PCT international application WO 03/040299, respectively, for the HLA-DR and HLA-DP4 molecules. The implementation of these assays for measuring the binding activity of peptides derived from various antigens is illustrated in U.S. Pat. No. 6,649,166 and PCT international applications WO 02/090382, WO 03/040299 and WO 2004/014936.
The sensitivity of each test is reflected by the IC50 values observed with the nonbiotinylated peptides which correspond to the tracers. […] The results are expressed in the form of relative activity (ratio of the IC50 of the competitor peptide to that of the reference peptide (nonbiotinylated peptide which corresponds to the tracer)). A relative activity of less than 100 characterizes the active peptides.

[12] = target: T2, HLA-DP402 (DPB1*0402) (Homo sapiens, UniProt P04440+P20036, A65V/A84D/A85E/L207M); format: binding; settings: ratio of IC50 of competitor peptide to IC50 of reference peptide; mean of at least two independent experiments; less than 100 = active
T2 sequence (P04440 30-258 A65V/A84D/A85E): T1 sequence (P04440 30-258) with A36V, A55D, A56E
T2 sequence (P20036 29-260): T1 sequence (P20036 29-260)

[13] = target: HLA-DR11 (DRB1*1101) (Homo sapiens, UniProt P01903+P01911, A100R/A169T/A87E/I96F/K41T/L162R/M171V/P40S/Q125H/Q178H/Q39Y/Q99D/R42S/S66Y/T262R/V115G/W38E); format: binding; settings: ratio of IC50 of competitor peptide to IC50 of reference peptide; mean of at least two independent experiments; less than 100 = active

Substance	Relative binding activity, DR1 [1]	Relative binding activity, DR3 [2]	Relative binding activity, DR4 [3]	Relative binding activity, DR7 [4]	Relative binding activity, DR13 [5]	Relative binding activity, DR15 [6]	Relative binding activity, DRB3 [7]	Relative binding activity, DRB4 [8]	Relative binding activity, DRB5 [9]	Relative binding activity, DP401 [10]	Total (number of the 12 predominant HLA II molecules bound) [11]	Relative binding activity, DP402 [12]	Relative binding activity, DR11 [13]
A E W A W G P C T P S S K D C (AEWAWGPCTPSSKDC) [MDK 38-52]	1 305	>419	1 859	>2 479	>2 537	>529	>485	>28 868	>2 100	>879	0	–	–
C G V G F R E G T C G A Q T Q (CGVGFREGTCGAQTQ) [MDK 52-64]	–	>419	–	>2 479	>2 537	>529	>485	>28 868	>2 100	>879	1	>976	–
C K Y K F E N W G A C D G G T (CKYKFENWGACDGGT) [MDK 84-98]	187	>419	–	>2 479	>2 537	141	>485	>28 868	–	–	2	–	>1 086
C N W K K E F G A D C K Y K F (CNWKKEFGADCKYKF) [MDK 74-88]	–	–	>1 812	>2 479	>2 537	>529	–	>28 868	–	>879	1	>976	1 231
C R V P C N W K K E F G A D C (CRVPCNWKKEFGADC) [MDK 70-84]	–	>419	1 562	>2 479	>2 537	>529	–	>28 868	>2 100	–	2	>976	>1 086
E N W G A C D G G T G T K V R (ENWGACDGGTGTKVR) [MDK 89-103]	1 460	>419	>1 812	>2 479	>2 537	>529	2 333	>28 868	>2 100	>879	0	>976	>1 086
G T K V R Q G T L K K A R Y N (GTKVRQGTLKKARYN) [MDK 99-113]	3 000	>419	>1 812	>2 479	–	>529	>485	>28 868	–	>879	1	>976	>1 086
G T L K K A R Y N A Q C Q E T (GTLKKARYNAQCQET) [MDK 105-119]	–	>419	–	>2 479	>2 537	225	>485	>28 868	>2 100	>879	1	>976	1 008
K D K V K K G G P G S E C A E (KDKVKKGGPGSECAE) [MDK 25-39]	1 251	>419	>1 812	>2 479	>2 537	>529	>485	>28 868	>2 100	>879	0	>976	>1 086
K E F G A D C K Y K F E N W G (KEFGADCKYKFENWG) [MDK 78-92]	299	–	–	>2 479	>2 537	216	–	>28 868	–	–	–	–	–
Q T Q R I R C R V P C N W K K (QTQRIRCRVPCNWKK) [MDK 64-78]	246	>419	–	2 066	>2 537	>529	>485	1 155	–	>879	1	>976	–
T S A V A K K K D K V K K G G (TSAVAKKKDKVKKGG) [MDK 18-32]	>5 291	>419	>1 812	>2 479	132	>529	>485	>28 868	>2 100	>879	0	>976	>1 086
